Assay [1] has as its target soluble HIV 89.6 gp120 envelope protein (HIV 89.6 (Clade B) primary isolate) (UniProt Q73372).
Assay [2] concerns the target scrambled sequence DP178 peptide. In words: SPR SA-chip assay, scrDP178 surface.
Assay [3] concerns the target soluble HIV 89.6 gp120 envelope protein (HIV 89.6 (Clade B) primary isolate) (UniProt Q73372). The source holds these as a separate data set.
Assay [4] concerns the target A32-gp120 complex (HIV 89.6 gp120 bound to mab A32) (HIV 89.6 (Clade B) primary isolate) (UniProt Q73372). In words: SPR SA-chip assay (FIG. 28B).
For assay [5] the target is unchanged. In words: SPR SA-chip assay, single component.
Assay [6] concerns the target soluble HIV 89.6 gp120 envelope protein (HIV 89.6 (Clade B) primary isolate) (UniProt Q73372). In words: SPR SA-chip assay, gp120 over scrDP178 surface.
Assay [7] shares this target. In words: SPR SA-chip assay, 89.6 gp120 over scrDP178 surface.
The target in assay [8] is HR-2 peptide DP178 (HIV-1 89.6).
In assay [9] the target is soluble CD4 (UniProt P01730). In words: SPR, preliminary experiments. In general terms: SPR reads the build-up and loss of mass on a sensor chip optically.
The target in assay [10] is soluble CD4 (UniProt P01730). In words: SPR, gp120 over immobilised CD4.
The target of assay [11] is soluble CD4 (UniProt P01730). In words: SPR (BIAcore), gp120 and CD4.

Where “and” joins values, the source holds several entries; their conditions need not be identical. Equal entries are not always repeated.

In general, koff refers to the first-order rate constant of dissociation. In general, Kd refers to the equilibrium constant for the complex coming apart. A higher Kd goes with weaker binding. Broadly, the kon is the second-order rate constant of association.

On to mAb 48d (antibody), for which, in assay [1], the % blocking of DP178 binding was 80%.
The same measure, in the same setting: for mab 17b (antibody) the value was 80%; for mab 19b (antibody), 68%.
Take mab A32 (antibody): the RU (background signal) in assay [2] was 10 RU and 20 RU.
For the substance scrambled sequence DP178 peptide, in assay [3], the band density stood at 0.6 ODunits/mm^2. Moreover, the RU in [4] is below 200 RU; in assay [6], 50 RU. In assay [5], the off-rate (koff) came to 0.017 s⁻¹. In addition, the RU (background signal) in assay [7] was 10 RU and 20 RU.
In [8], “soluble HIV 89.6 gp120 envelope protein, Q73372 32-508” displayed an off-rate (koff) of 0.017 s⁻¹.
In the assay with soluble CD4 [9], soluble, monomeric gp120 DH12 displayed a t1/2 of binding of 25 min. In the assay with soluble CD4 [10], this substance showed a Kd of 96 nM and a koff of 0.00047 s⁻¹. In the assay with soluble CD4 [11], this substance returned a Kd of 78 nM, a koff of 0.000386 s⁻¹, a kon of 4900 M⁻¹ s⁻¹ and a t1/2 of 30 min.
On to soluble, monomeric gp120 JRFL, for which, in the assay with soluble CD4 [9], the t1/2 of binding worked out at 14 min. Besides, in the assay with soluble CD4 [10], the Kd worked out at 146 nM and the dissociation rate constant (koff) worked out at 0.00088 s⁻¹. In the assay with soluble CD4 [11], this substance showed a Kd of 150 nM, an off-rate constant (koff) of 0.000884 s⁻¹ and an on-rate constant (kon) of 6000 M⁻¹ s⁻¹.

The record behind these values is patent US7033593.
